# Columns and labels:
# [1] = tested on: fluorescent tripeptidyl substrate PRR, MeOC-GGG-PRR-GG-DPA-KK-NH2
# [2] = tested on: recombinant pro-stem bromelain
# [3] = target: albumin in human plasma / human serum (UniProt P02768)
# [4] = tested on: recombinant pro-fruit bromelain
# [5] = tested on: T1, FVR-7-amino-4-methylcoumarin
# T1 sequence: FVR
# Chain of UniProt P02768 (P02768 whole entry, looked up): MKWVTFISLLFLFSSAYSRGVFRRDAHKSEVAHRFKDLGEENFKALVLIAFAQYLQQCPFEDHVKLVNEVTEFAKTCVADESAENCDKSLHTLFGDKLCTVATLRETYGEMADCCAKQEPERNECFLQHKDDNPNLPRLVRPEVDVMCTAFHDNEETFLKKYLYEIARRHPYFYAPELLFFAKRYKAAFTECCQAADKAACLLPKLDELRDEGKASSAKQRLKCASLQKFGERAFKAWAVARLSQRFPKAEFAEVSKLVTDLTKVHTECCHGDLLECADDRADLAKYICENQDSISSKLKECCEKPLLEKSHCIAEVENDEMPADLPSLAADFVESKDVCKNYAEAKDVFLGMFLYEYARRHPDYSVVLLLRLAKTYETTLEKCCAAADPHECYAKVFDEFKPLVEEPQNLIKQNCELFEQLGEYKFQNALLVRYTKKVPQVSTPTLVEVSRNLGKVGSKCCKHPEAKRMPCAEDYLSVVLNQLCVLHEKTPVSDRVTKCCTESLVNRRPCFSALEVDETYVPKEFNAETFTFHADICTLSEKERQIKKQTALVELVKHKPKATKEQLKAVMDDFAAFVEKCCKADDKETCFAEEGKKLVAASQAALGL
substance,measurement,setting,value
activated stem bromelain,initial rate of proteolysis of PRR (fluorescence),[1],about 0.024 µg PRR molecules per min
"active ananain (recombinant, obtained by activation of pro-ananain)","cleavage of pro-SB by active ananain, SDS-PAGE time course",[2],"mixing active ananain and pro-SB at a weight ratio of 1:25 led to a complete cleavage of pro-SB within 10 min, resulting in two fragments of 24 and 12 kDa"
same,"cleavage of pro-SB on an ananain-immobilized column, SDS-PAGE",[2],The collected activated SB was subject to SDS-PAGE analysis and was confirmed to be fully activated
same,"proteolysis of human plasma/serum proteins, SDS-PAGE",[3],"The clear reduction of albumin in sample A, C and D in the presence of ananain indicates that albumin is a protein substrate for ananain"
same,"cleavage of pro-FB on an ananain-immobilized column, SDS-PAGE",[4],The collected activated FB was subject to SDS-PAGE analysis and was confirmed to be fully activated
recombinant pro-fruit bromelain,proteolysis of FVR-AMC (fluorescence),[5],pro-FB did not cleave FVR-AMC at all
recombinant pro-stem bromelain,initial rate of proteolysis of PRR (fluorescence),[1],the cleavage of PRR by 100 nM Pro-SB was negligible
